According to the supplement of paper PMC9233669:
Fewer inactive variants are shown than the library holds.

Tests used:
[1] = system: biotinyl-Phe-oxazolone; experiment: self-aminoacylation, catalytic enhancement (BFO) (fold over background); higher = more active; k-Seq, kA / k0A0; sequences stand for … in GGGAAUGGAUCCACAUCUACGAAUUC…UUCACUGCAGACUUGACGAAGCUG
Summary of the method: (§1)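 Catalytic enhancement equals the median kA over the uncatalyzed rate, the latter read from the low-activity peak of a bimodal Gaussian fit. Values of kA came from fitting each sequence's fraction reacted to a pseudo-first-order model, with 1000 bootstraps. Reacted RNA was captured with streptavidin and quantified by triplicate qPCR and Illumina sequencing after 90 minutes at room temperature with 2–1250 μM biotinyl-aminoacyl-oxazolone and 0.43 μM mutagenized RNA pools bearing a 21-nt variable region.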

[2] = system: biotinyl-Ile-oxazolone; experiment: self-aminoacylation, catalytic enhancement (BIO) (fold over background); higher = more active; k-Seq, kA / k0A0; sequences stand for … in GGGAAUGGAUCCACAUCUACGAAUUC…UUCACUGCAGACUUGACGAAGCUG
Summary of the method: as §1

[3] = system: biotinyl-Leu-oxazolone; experiment: self-aminoacylation, catalytic enhancement (BLO) (fold over background); higher = more active; k-Seq, kA / k0A0; sequences stand for … in GGGAAUGGAUCCACAUCUACGAAUUC…UUCACUGCAGACUUGACGAAGCUG
Summary of the method: as §1

[4] = system: biotinyl-Met-oxazolone; experiment: self-aminoacylation, catalytic enhancement (BMO) (fold over background); higher = more active; k-Seq, kA / k0A0; sequences stand for … in GGGAAUGGAUCCACAUCUACGAAUUC…UUCACUGCAGACUUGACGAAGCUG
Summary of the method: as §1

[5] = system: biotinyl-Trp-oxazolone; experiment: self-aminoacylation, catalytic enhancement (BWO) (fold over background); higher = more active; k-Seq, kA / k0A0; sequences stand for … in GGGAAUGGAUCCACAUCUACGAAUUC…UUCACUGCAGACUUGACGAAGCUG
Summary of the method: as §1

[6] = system: biotinyl-Val-oxazolone; experiment: self-aminoacylation, catalytic enhancement (BVO) (fold over background); higher = more active; k-Seq, kA / k0A0; sequences stand for … in GGGAAUGGAUCCACAUCUACGAAUUC…UUCACUGCAGACUUGACGAAGCUG
Summary of the method: as §1

Q: For “CCACACUGCAAGCAUUCGGUC [Fam1B.1 aminoacylation ribozyme variant]”, which self-aminoacylation [1] is on record?
A: 8.26

Q: And the self-aminoacylation [2]?
A: 2.37

Q: What about the self-aminoacylation [3] of the same sequence?
A: 2.58

Q: What about the self-aminoacylation [4] of the same sequence?
A: 2.04

Q: What about the self-aminoacylation [5] of the same sequence?
A: 3.51

Q: What about the self-aminoacylation [6] of the same sequence?
A: 2.96

Q: “AAGUUUGUUAAUAGUCGAAAG [Fam3.1 aminoacylation ribozyme variant]” was tested. Which self-aminoacylation [1] did it give?
A: 1.08

Q: And the self-aminoacylation [2]?
A: 0.947

Q: And the self-aminoacylation [3]?
A: 0.935

Q: What about the self-aminoacylation [4] of the same sequence?
A: 0.764

Q: What about the self-aminoacylation [5] of the same sequence?
A: 0.713

Q: What about the self-aminoacylation [6] of the same sequence?
A: 0.998

Q: “AAGUGCGCUAAUAGUCGCAAG [Fam3.1 aminoacylation ribozyme variant]” was tested. Which self-aminoacylation [1] did it give?
A: 3.73

Q: What about the self-aminoacylation [2] of the same sequence?
A: 1.84

Q: What about the self-aminoacylation [3] of the same sequence?
A: 1.38

Q: And the self-aminoacylation [4]?
A: 1.19

Q: And the self-aminoacylation [5]?
A: 4.08

Q: And the self-aminoacylation [6]?
A: 1.8

Q: Which self-aminoacylation [1] does the source give for “AUUAACCUAGGCCAUCGGGUG [Fam2.2 aminoacylation ribozyme variant]” here?
A: 15.1

Q: And the self-aminoacylation [2]?
A: 2.31

Q: And the self-aminoacylation [3]?
A: 4.62

Q: What about the self-aminoacylation [4] of the same sequence?
A: 3.21

Q: And the self-aminoacylation [5]?
A: 3.52

Q: What about the self-aminoacylation [6] of the same sequence?
A: 2.45

Q: With “GUUACCCUGGUCAUAGAGUGA [Fam2.1 aminoacylation ribozyme variant]” as the sequence, how does the self-aminoacylation [1] read?
A: 85.2

Q: And the self-aminoacylation [2]?
A: 5.89

Q: What about the self-aminoacylation [3] of the same sequence?
A: 12.6

Q: What about the self-aminoacylation [4] of the same sequence?
A: 11.1

Q: What about the self-aminoacylation [5] of the same sequence?
A: 14.1

Q: What about the self-aminoacylation [6] of the same sequence?
A: 5.04

Q: Which self-aminoacylation [1] does the source give for “AUUAACCUAGCUCAUCGGGUG [Fam2.2 aminoacylation ribozyme variant]” here?
A: 8.47

Q: And the self-aminoacylation [2]?
A: 1.79

Q: What about the self-aminoacylation [3] of the same sequence?
A: 1.65

Q: What about the self-aminoacylation [4] of the same sequence?
A: 1.96

Q: And the self-aminoacylation [5]?
A: 1.86

Q: And the self-aminoacylation [6]?
A: 1.79

Q: How did the self-aminoacylation [1] turn out when “AUUCGCCUAGGUCAUUGGGUG [Fam2.2 aminoacylation ribozyme variant]” was run?
A: 23.2

Q: And the self-aminoacylation [2]?
A: 3.14

Q: And the self-aminoacylation [3]?
A: 5.43

Q: And the self-aminoacylation [4]?
A: 4.27

Q: What about the self-aminoacylation [5] of the same sequence?
A: 4.29

Q: What about the self-aminoacylation [6] of the same sequence?
A: 3.23

Q: What does the source list for “AAGUUUGCUAAUAGUCGGCAG [Fam3.1 aminoacylation ribozyme variant]”?
A: self-aminoacylation [1]: 1.3; self-aminoacylation [2]: 0.923; self-aminoacylation [3]: 0.983; self-aminoacylation [4]: 0.98; self-aminoacylation [5]: 1.28; self-aminoacylation [6]: 0.785

Q: For “CCACACUUCACGCAGUCGGUC [Fam1B.1 aminoacylation ribozyme variant]”, which self-aminoacylation [1] is on record?
A: 0.859

Q: What about the self-aminoacylation [2] of the same sequence?
A: 1.13

Q: And the self-aminoacylation [3]?
A: 1.31

Q: And the self-aminoacylation [4]?
A: 0.94

Q: What about the self-aminoacylation [5] of the same sequence?
A: 0.719

Q: And the self-aminoacylation [6]?
A: 1.47

Q: Which results are given for “AAGUUUGCUAAUAGUCGCAGA [Fam3.1 aminoacylation ribozyme variant]”?
A: self-aminoacylation [1]: 1.77; self-aminoacylation [2]: 1.54; self-aminoacylation [3]: 1.12; self-aminoacylation [4]: 1.03; self-aminoacylation [5]: 0.729; self-aminoacylation [6]: 0.914

Q: Which self-aminoacylation [1] does the source give for “AUUACCCUGGGCAUAGAGUGA [Fam2.1 aminoacylation ribozyme variant]” here?
A: 71.5

Q: What about the self-aminoacylation [2] of the same sequence?
A: 4.98

Q: And the self-aminoacylation [3]?
A: 12.6

Q: What about the self-aminoacylation [4] of the same sequence?
A: 10.1

Q: And the self-aminoacylation [5]?
A: 12.6

Q: What about the self-aminoacylation [6] of the same sequence?
A: 4.72

Q: “AAGUUUGCUAAUAGUCGCCAU [Fam3.1 aminoacylation ribozyme variant]” was tested. Which self-aminoacylation [1] did it give?
A: 0.768

Q: What about the self-aminoacylation [2] of the same sequence?
A: 1.27

Q: And the self-aminoacylation [3]?
A: 1.24

Q: And the self-aminoacylation [4]?
A: 1.44

Q: What about the self-aminoacylation [5] of the same sequence?
A: 1.08

Q: And the self-aminoacylation [6]?
A: 1.2

Q: How did the self-aminoacylation [1] turn out when “CAAUUUCAAACAAUCGGUCUG [Fam1A.1 aminoacylation ribozyme variant]” was run?
A: 9.15

Q: And the self-aminoacylation [2]?
A: 1.01

Q: What about the self-aminoacylation [3] of the same sequence?
A: 0.903

Q: And the self-aminoacylation [4]?
A: 1.02

Q: What about the self-aminoacylation [5] of the same sequence?
A: 5.88

Q: What about the self-aminoacylation [6] of the same sequence?
A: 0.869

Q: How did the self-aminoacylation [1] turn out when “ACUACCCUGGUCAUCGAGUGC [Fam2.1 aminoacylation ribozyme variant]” was run?
A: 10.1

Q: What about the self-aminoacylation [2] of the same sequence?
A: 2.18

Q: What about the self-aminoacylation [3] of the same sequence?
A: 5.6

Q: What about the self-aminoacylation [4] of the same sequence?
A: 5.55

Q: And the self-aminoacylation [5]?
A: 4.17

Q: And the self-aminoacylation [6]?
A: 2.44

Q: Which self-aminoacylation [1] does the source give for “CCACACUUCGAGCAAUCGUUC [Fam1B.1 aminoacylation ribozyme variant]” here?
A: 0.683

Q: And the self-aminoacylation [2]?
A: 0.516

Q: And the self-aminoacylation [3]?
A: 0.493

Q: And the self-aminoacylation [4]?
A: 0.412

Q: What about the self-aminoacylation [5] of the same sequence?
A: 0.469

Q: What about the self-aminoacylation [6] of the same sequence?
A: 0.569

Q: Which results are given for “AUUCACCUAGGUCAGCGGGUU [Fam2.2 aminoacylation ribozyme variant]”?
A: self-aminoacylation [1]: 4.6; self-aminoacylation [2]: 2.56; self-aminoacylation [3]: 2.42; self-aminoacylation [4]: 1.65; self-aminoacylation [5]: 1.94; self-aminoacylation [6]: 2.15

Q: What does the source list for “AGGUUUGCUAAUAGUUGCAAG [Fam3.1 aminoacylation ribozyme variant]”?
A: self-aminoacylation [1]: 1.44; self-aminoacylation [2]: 1.17; self-aminoacylation [3]: 0.994; self-aminoacylation [4]: 0.863; self-aminoacylation [5]: 0.893; self-aminoacylation [6]: 0.924

Q: Which self-aminoacylation [1] does the source give for “AACUUUGCUAUUAGUCGCAAG [Fam3.1 aminoacylation ribozyme variant]” here?
A: 4.36

Q: And the self-aminoacylation [2]?
A: 2.57

Q: And the self-aminoacylation [3]?
A: 2.73

Q: What about the self-aminoacylation [4] of the same sequence?
A: 2.34

Q: What about the self-aminoacylation [5] of the same sequence?
A: 2.99

Q: What about the self-aminoacylation [6] of the same sequence?
A: 2

Q: How did the self-aminoacylation [1] turn out when “UUUCACCUAGGUCGUCGGGUG [Fam2.2 aminoacylation ribozyme variant]” was run?
A: 11.2

Q: What about the self-aminoacylation [2] of the same sequence?
A: 1.9

Q: And the self-aminoacylation [3]?
A: 2.44

Q: And the self-aminoacylation [4]?
A: 2.75

Q: And the self-aminoacylation [5]?
A: 3

Q: And the self-aminoacylation [6]?
A: 2.27

Q: What does the source list for “CCACACUCCAUGCAAUCGGUC [Fam1B.1 aminoacylation ribozyme variant]”?
A: self-aminoacylation [1]: 0.866; self-aminoacylation [2]: 0.982; self-aminoacylation [3]: 0.901; self-aminoacylation [4]: 0.676; self-aminoacylation [5]: 0.663; self-aminoacylation [6]: 1.05

Q: “CUACUUCAAAGAGUCGGUCUG [Fam1A.1 aminoacylation ribozyme variant]” was tested. Which self-aminoacylation [1] did it give?
A: 0.46

Q: And the self-aminoacylation [2]?
A: 0.695

Q: And the self-aminoacylation [3]?
A: 0.849

Q: What about the self-aminoacylation [4] of the same sequence?
A: 1.13

Q: And the self-aminoacylation [5]?
A: 0.754

Q: And the self-aminoacylation [6]?
A: 0.835

Q: For “AACUUUGCUAAUAGUCACAAG [Fam3.1 aminoacylation ribozyme variant]”, which self-aminoacylation [1] is on record?
A: 3.95

Q: And the self-aminoacylation [2]?
A: 2.2

Q: And the self-aminoacylation [3]?
A: 1.87

Q: What about the self-aminoacylation [4] of the same sequence?
A: 1.47

Q: What about the self-aminoacylation [5] of the same sequence?
A: 2.52

Q: What about the self-aminoacylation [6] of the same sequence?
A: 2.09

Q: Which results are given for “AUAACCCCGGUCAUCGAGUGA [Fam2.1 aminoacylation ribozyme variant]”?
A: self-aminoacylation [1]: 32.9; self-aminoacylation [2]: 3.75; self-aminoacylation [3]: 7.29; self-aminoacylation [4]: 7.41; self-aminoacylation [5]: 6.89; self-aminoacylation [6]: 3.32
